Data: publication PMC12255303, “Regulation of a phage defence island by RptR, a novel repressor that controls restriction–modification systems in diverse bacteria”

Legend:
[1] = molecular target: RptR (RMS-proximal transcriptional regulator) with an N-terminal His6 tag and 3C protease cleavage site (Escherichia coli O127:H6 E2348/69 (EPEC)); test: SEC; analytical SEC on Superdex 75 Increase 10/300 GL, calibrated with five low-MW standards; MW of His6-3C-RptR interpolated from elution volumes of the purification (SEC buffer 25 mM Tris-HCl pH 8, 200 mM KCl)
[2] = molecular target: T1, RptR (His6-3C-RptR) (Escherichia coli O127:H6 E2348/69 (EPEC), UniProt B7UP23 1-79); test: EMSA; up to 1.2 uM RptR; EMSA: 25 mM Tris-HCl pH 8, 150 mM NaCl, 5 mM MgCl2, 0.05 uM dsDNA, 37 C 30 min then 4 C; 8% TBE-PAGE at 4 C, SYBR Gold; details: protein: recombinant; tags: N-terminal His6 and 3C protease site (cleavage not described); chain copies: 2; blunt
T1 sequence: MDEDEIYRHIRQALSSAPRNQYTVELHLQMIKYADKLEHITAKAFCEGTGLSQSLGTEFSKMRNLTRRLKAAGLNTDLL

[3] = molecular target: T1, RptR (His6-3C-RptR); test: EMSA; per RptR dimer; Hill coefficient 3.4; EMSA: 25 mM Tris-HCl pH 8, 150 mM NaCl, 5 mM MgCl2, 0.05 uM dsDNA, 37 C 30 min then 4 C; 8% TBE-PAGE at 4 C, SYBR Gold; details: protein: recombinant; tags: N-terminal His6 and 3C protease site (cleavage not described); chain copies: 2; blunt
[4] = molecular target: T1, RptR (His6-3C-RptR); test: EMSA; single shift; details: protein: recombinant; tags: N-terminal His6 and 3C protease site (cleavage not described); chain copies: 2; blunt
[5] = molecular target: T1, RptR (His6-3C-RptR); test: EMSA; binding abolished; details: protein: recombinant; tags: N-terminal His6 and 3C protease site (cleavage not described); chain copies: 2; blunt
[6] = molecular target: T1, RptR (His6-3C-RptR); test: EMSA; higher shift only; details: protein: recombinant; tags: N-terminal His6 and 3C protease site (cleavage not described); chain copies: 2; blunt
[7] = molecular target: T1, RptR (His6-3C-RptR); test: EMSA; same shift as DR1/s/3; details: protein: recombinant; tags: N-terminal His6 and 3C protease site (cleavage not described); chain copies: 2; blunt

RptR (RMS-proximal transcriptional regulator) with an N-terminal His6 tag and 3C protease cleavage site (natural protein)
stoichiometry N [1]: 2

B1: DRs/s/s (dsDNA)
DNA 1: AGTTCTTGAACCTGATACCACATTGAATCTATTGAATCTATTGAATCTACTTATCCATTA
DNA 2: TAATGGATAAGTAGATTCAATAGATTCAATAGATTCAATGTGGTATCAGGTTCAAGAACT
binding result [2]: no binding

B2: DR1/2/3 (WT) (dsDNA)
DNA 1: AGTTCTTGAACCTGATACCACATTTAGCTAATTTAGCTAATTTAGCTAACTTATCCATTA
DNA 2: TAATGGATAAGTTAGCTAAATTAGCTAAATTAGCTAAATGTGGTATCAGGTTCAAGAACT
Kd [3]: 185 nM

B3: DR1/2/s (WT control) (dsDNA)
DNA 1: AGTTCTTGAACCTGATACCACATTTAGCTAATTTAGCTAATTGAATCTACTTATCCATTA
DNA 2: TAATGGATAAGTAGATTCAATTAGCTAAATTAGCTAAATGTGGTATCAGGTTCAAGAACT
binding result [4]: binds

B4: DRs/2/3 (dsDNA)
DNA 1: AGTTCTTGAACCTGATACCACATTGAATCTATTTAGCTAATTTAGCTAACTTATCCATTA
DNA 2: TAATGGATAAGTTAGCTAAATTAGCTAAATAGATTCAATGTGGTATCAGGTTCAAGAACT
binding result [4]: binds

B5: DR1/2/3 C6G (labelled C5G in Fig S4) (dsDNA)
DNA 1: AGTTCTTGAACCTGATACCACATTTAGGTAATTTAGGTAATTTAGGTAACTTATCCATTA
DNA 2: TAATGGATAAGTTACCTAAATTACCTAAATTACCTAAATGTGGTATCAGGTTCAAGAACT
binding result [5]: no binding

B6: DR1/s/3 (dsDNA)
DNA 1: AGTTCTTGAACCTGATACCACATTTAGCTAATTGAATCTATTTAGCTAACTTATCCATTA
DNA 2: TAATGGATAAGTTAGCTAAATAGATTCAATTAGCTAAATGTGGTATCAGGTTCAAGAACT
binding result [6]: binds

B7: DR1/r/3 (dsDNA)
DNA 1: AGTTCTTGAACCTGATACCACATTTAGCTAAGAGAGAGAGTTTAGCTAACTTATCCATTA
DNA 2: TAATGGATAAGTTAGCTAAACTCTCTCTCTTAGCTAAATGTGGTATCAGGTTCAAGAACT
binding result [7]: binds
